Substitutions are numbered along the chain they refer to. Blank lines part the entries; values can stand above or below the molecule they belong to.
How the values were obtained:
dimeric human ACVRL1 = molecular target: T1, dimeric human ACVRL1 (human, UniProt P37023 22-118, limits assumed); assay: SPR Biacore T200, mAb captured by anti-human Fab, 100 nM dimeric receptor injected, 25C
T1 construct: Construct and dimerising part not described; also called Human Receptor ACVRL1
Method: (§1) ACVR1 mAbs were tested for cross-reactivity to a panel of bone morphogenic protein type 1 receptors including human and mouse ACVR1, BMPR1A, and BMPR1B, as well as ACVRL1 on a Biacore T200 as follows. In order to measure the specificity of ACVR1 mAbs, ACVR1 mAbs were captured with anti-human Fab immobilized on a CM5 chip. 100 nM or 10 nM of dimeric human or mouse ACVR1, ACVRL1, BMPR1A or BMPR1B were injected at 30 μL/min for 2 min (duplicate injections) and the experiment was performed at 25° C. Binding of different receptors to the captured mAb was determined using Scrubber 2.0c software.

dimeric mouse BMPR1A = molecular target: T2, dimeric mouse BMPR1A (mouse, UniProt P36895 24-152, limits assumed); assay: as above
T2 construct: Construct and dimerising part not described; also called Mouse Receptor BMPR1A
T2 sequence (P36895 24-152 limits assumed): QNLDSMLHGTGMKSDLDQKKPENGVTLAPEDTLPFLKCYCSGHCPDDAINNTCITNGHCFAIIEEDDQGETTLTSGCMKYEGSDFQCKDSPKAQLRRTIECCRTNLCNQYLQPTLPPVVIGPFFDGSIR
Method: as §1

dimeric mouse BMPR1B = molecular target: T3, dimeric mouse BMPR1B (mouse, UniProt P36898 14-126, limits assumed); assay: as above
T3 construct: Construct and dimerising part not described; also called Mouse Receptor BMPR1B
T3 sequence (looked up): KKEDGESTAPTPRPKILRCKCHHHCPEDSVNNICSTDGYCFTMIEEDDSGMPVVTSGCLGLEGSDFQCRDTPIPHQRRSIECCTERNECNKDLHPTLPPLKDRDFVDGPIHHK
Method: as §1

dimeric human BMPR1B = molecular target: T4, dimeric human BMPR1B (human, UniProt O00238 14-126, limits assumed); assay: as above
T4 construct: Construct and dimerising part not described; also called Human Receptor BMPR1B
T4 sequence (looked up): T3 sequence (looked up) with I16V, M51L, D102N, K113R
Method: as §1

dimeric human BMPR1A = molecular target: T5, dimeric human BMPR1A (human, UniProt P36894 24-152, limits assumed); assay: as above
T5 construct: Construct and dimerising part not described; also called Human Receptor BMPR1A
T5 sequence (P36894 24-152 limits assumed): as the sequence (P36895 24-152 limits assumed) above, with L16S, P21S, T74A counted along it
Method: as §1

dimeric mouse ACVR1 = molecular target: T6, dimeric mouse ACVR1 (mouse, UniProt P37172 21-123, limits assumed); assay: as above
T6 construct: also called Mouse Receptor ACVR1
T6 sequence (looked up): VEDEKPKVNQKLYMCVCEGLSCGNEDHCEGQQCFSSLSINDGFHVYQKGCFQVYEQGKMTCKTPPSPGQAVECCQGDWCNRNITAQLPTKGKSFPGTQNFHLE
Method: as §1

dimeric mouse ACVRL1 = molecular target: T7, dimeric mouse ACVRL1 (mouse, UniProt Q61288 23-119, limits assumed); assay: as above
T7 construct: Construct and dimerising part not described; also called Mouse Receptor ACVRL1
T7 sequence (looked up): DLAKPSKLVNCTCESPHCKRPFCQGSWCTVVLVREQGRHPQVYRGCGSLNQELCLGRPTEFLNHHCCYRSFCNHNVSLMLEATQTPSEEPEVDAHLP
Method: as §1

dimeric human ACVR1 = molecular target: T8, dimeric human ACVR1 (human, UniProt Q04771 21-123, limits assumed); assay: as above
T8 construct: ACVR1'; also called Human Receptor ACVR1
T8 sequence (looked up): T6 sequence (looked up) with V1M, Q10P
Method: as §1

[1] = molecular target: full length human ACVR1 (amino acids 1-509, R206H, of accession #Q04771) on HEK293/BRE-luc/hACVR1-R206H-clone H2 cells (human) (UniProt Q04771); assay: flow cytometry, secondary antibody alone on HEK293/hACVR1-R206H cells, 4C
[2] = molecular target: human ACVR1 extracellular domain expressed with a C-terminal myc-myc-hexahistidine tag (human); assay: BLI (Octet) cross-competition: hACVR1.mmh captured on anti-His biosensor, saturated with 1st mAb REGN 5168 (50 ug/mL), then dipped into 2nd mAb Isotype Control (50 ug/mL); white cell
[3] = molecular target: human ACVR1 extracellular domain expressed with a C-terminal myc-myc-hexahistidine tag (human); assay: BLI (Octet) cross-competition: hACVR1.mmh captured on anti-His biosensor, saturated with 1st mAb REGN 5167 (50 ug/mL), then dipped into 2nd mAb Isotype Control (50 ug/mL); white cell
[4] = molecular target: human ACVR1 extracellular domain expressed with a C-terminal myc-myc-hexahistidine tag (human); assay: BLI (Octet) cross-competition: hACVR1.mmh captured on anti-His biosensor, first dipped into 1st mAb Isotype Control (50 ug/mL), then into 2nd mAb Isotype Control (50 ug/mL); dotted cell (self-self)
[5] = molecular target: human ACVR1 extracellular domain expressed with a C-terminal myc-myc-hexahistidine tag (human); assay: BLI (Octet) cross-competition: hACVR1.mmh captured on anti-His biosensor, saturated with 1st mAb REGN 5166 (50 ug/mL), then dipped into 2nd mAb Isotype Control (50 ug/mL); white cell
[6] = molecular target: full length human ACVR1 (amino acids 1-509, R206H, of accession #Q04771) on HEK293/BRE-luc/hACVR1-R206H-clone H2 cells (human) (UniProt Q04771); assay: flow cytometry, 70 nM antibody on HEK293/hACVR1-R206H cells, 4C
[7] = molecular target: T9, mouse ACVR1 extracellular domain expressed with a C-terminal myc-myc-hexahistidine tag (mouse); assay: SPR, mACVR1.mmh captured by anti-myc antibody on CM5, Fab injected, 37C
T9 construct: also called mACVR1-mmh; mACVR1.mmh
T9 chain: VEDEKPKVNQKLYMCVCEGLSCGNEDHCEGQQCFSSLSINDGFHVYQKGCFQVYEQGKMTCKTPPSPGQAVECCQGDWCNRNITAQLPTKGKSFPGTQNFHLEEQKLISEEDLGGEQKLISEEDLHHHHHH
Method: (§2) In order to measure the binding constants of ACVR1 Fabs, mACVR1.mmh was captured with a myc antibody (REGN 642) immobilized on a CM5 chip. Different concentrations of ACVR1 Fabs were injected over mACVR1.mmh at 37° C. Binding rate constants and equilibrium dissociation rate constants were calculated by fitting data using 1:1 Langmuir binding model (Scrubber 2.0c).

[8] = molecular target: T10, human ACVR1 extracellular domain expressed with a C-terminal myc-myc-hexahistidine tag (human); assay: SPR, hACVR1.mmh captured by anti-myc antibody on CM5, Fab injected, 37C
T10 construct: also called hACVR1-mmh; hACVR1.mmh
T10 chain: T9 chain with V1M, Q10P
Method: as §2, with “hACVR1.mmh” for “mACVR1.mmh”, “(REGN642)” for “(REGN 642)”

T1 sequence (P37023 22-118 limits assumed): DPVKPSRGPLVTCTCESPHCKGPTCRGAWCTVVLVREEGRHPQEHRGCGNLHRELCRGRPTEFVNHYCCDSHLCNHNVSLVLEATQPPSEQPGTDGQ

Molecule: Alexa Fluor-647 conjugated secondary antibody (Jackson ImmunoResearch, anti-human #109-607-003)
- MFI-Normalized to Unstained Control [1]: 1 fold

B1: REGN 5166 Fab (Fab, V domains shown)
VH: QVQLVESGGGVVQPGRSLRLSCAASGFTFSAYWMHWVRQAPGKGLEWVAVISYDGSNKYYADSVKGRFTISRDHSKNTLYLQMNSLRAEDTAVYYCAKGDAYDSWRILLGGDYYGMDVWGQGTTVTVSS
VL: EIVLTQSPGTLSLSPGERATLSCRASQSVSSSYLAWYQQKPGQAPRPLIYGASSRATGIPDRFSGSGSGTDFTLTISRLEPEDFAVYYCQQGGDAPPYTFGGGTKVEIK
notes: also called ACVR1 Fab
- Kd [7]: 0.16 nM
- koff [7]: 0.000105 s⁻¹
- kon [7]: 653000 M⁻¹ s⁻¹
- t1/2 [7]: 1.83 h
- Kd [8]: 0.154 nM
- koff [8]: 0.000106 s⁻¹
- kon [8]: 690000 M⁻¹ s⁻¹
- t1/2 [8]: 1.82 h

B2: REGN 5167 Fab (Fab, V domains shown)
VH: QLQLQESGPGLVKPSETLSLTCTVSGGSITSSSYYWAWIRQPPGKGLEWIGKIYYSGSTHYNPSLKSRVTISVDTSKNQFSLKLSSVTAADTAVYYCARVGGHGYGDSAGLAFDIWGQGTMVTVSS
VL: EIVLTQSPGTLSLSPGERATLSCRASQSVSSAFLAWYQQKPGQAPRLLIYGASYRHTGIPDRFSGSGSGTDFTLTISRLEPEDFAVYYCQHYGVGPRTFGGGTKVEIK
notes: also called ACVR1 Fab
- Kd [7]: 0.178 nM
- koff [7]: 9.72e-05 s⁻¹
- kon [7]: 545000 M⁻¹ s⁻¹
- t1/2 [7]: 1.98 h
- Kd [8]: 0.17 nM
- koff [8]: 9.36e-05 s⁻¹
- kon [8]: 549000 M⁻¹ s⁻¹
- t1/2 [8]: 2.05 h

Next, values leading:

- 100 nM Human Receptor Binding (dimeric human ACVRL1): 2 RU
- 100 nM Mouse Receptor Binding (dimeric mouse BMPR1A): 7 RU
- 100 nM Mouse Receptor Binding (dimeric mouse BMPR1B): 1 RU
- 100 nM Human Receptor Binding (dimeric human BMPR1B): 19 RU
- 100 nM Human Receptor Binding (dimeric human BMPR1A): 1 RU
- 100 nM Mouse Receptor Binding (dimeric mouse ACVR1): 8 RU
- 100 nM Mouse Receptor Binding (dimeric mouse ACVRL1): 2 RU
- 100 nM Human Receptor Binding (dimeric human ACVR1): 11 RU
Molecule: Isotype control (Example 4) (antibody)

- wavelength shift of 2nd mAb binding [2]: 0.04 nm
- wavelength shift of 2nd mAb binding [3]: 0.05 nm
- wavelength shift of 2nd mAb binding [4]: 0.07 nm
- wavelength shift of 2nd mAb binding [5]: 0.05 nm
Molecule: isotype-matched negative control (Example 5) (antibody)

- MFI-Normalized to Unstained Control [6]: 3 fold
Molecule: human IgG control antibody
